Data published in patent EP3199551.
Where two headings read alike, the source gives them in different places.

How the values were obtained:
human BTLA [1] = target: T1, human BTLA (human, UniProt Q7Z6A9); test: SPR
human BTLA [2] = target: T1, human BTLA; test: SPR; remark: listed apart in the source
human BTLA [3] = target: T1, human BTLA; test: FACS, 4C

T1 sequence (Q7Z6A9 31-157): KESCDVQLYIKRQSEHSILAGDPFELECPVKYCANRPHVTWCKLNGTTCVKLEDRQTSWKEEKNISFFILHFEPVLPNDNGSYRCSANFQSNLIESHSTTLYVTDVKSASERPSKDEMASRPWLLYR

Binder	Kd (human BTLA [1]) [nM]	Kd (human BTLA [2]) [nM]	EC50 (human BTLA [3]) [nM]
hu Mab8D5 (IgG4 S228P) (antibody, V domains shown) VH: EVQLVESGGGLVQPGGSLRLSCAASGFTISSYDMHWVRQATGKGLEWVSVIGPAGDTYYPGSVKGRFTISRENAKNSLYLQMNSLRAGDTAVYYCAREGMAAHNYYGMDVWGQGTTVTVSS VL: not shown	2.99	2.4	~12
hu Mab8D5 G1 (IgG1) (antibody, V domains shown) VH: EVQLVESGGGLVQPGGSLRLSCAASGFTISSYDMHWVRQATGKGLEWVSVIGPAGDTYYPGSVKGRFTISRENAKNSLYLQMNSLRAGDTAVYYCAREGMAAHNYYGMDVWGQGTTVTVSS VL: not shown	–	–	~12
